Target: T1, human CD7 (human, UniProt P09564 26-240)
T1 construct: whole, on cells; also called CD7 antigen; CD7 on the surface of Jurkat, Molt4, CCRF-CEM and Hut78 cells
T1 sequence (looked up): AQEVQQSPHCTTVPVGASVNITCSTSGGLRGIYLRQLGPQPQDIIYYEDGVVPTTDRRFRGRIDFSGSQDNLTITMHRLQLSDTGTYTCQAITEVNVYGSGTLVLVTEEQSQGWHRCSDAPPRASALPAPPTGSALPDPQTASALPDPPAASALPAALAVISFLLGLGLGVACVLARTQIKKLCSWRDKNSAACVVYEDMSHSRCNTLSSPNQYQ
Assay: FACS on Jurkat, Molt4, CEM and Hut78 cells that highly express human CD7; antibody at 0.15 µg/100 µl
Experimental: Binding of the monoclonal antibody HIT7 in Example 1 and the commercialized CD7-6B7 antibody (Biolegend, PE/Cyanine7 anti-human CD7 antibody, clone number CD7-6B7) to CD7 on the surface of Jurkat, Molt4, CCRF-CEM, and Hut78 cells that highly expressed human CD7 was tested by FACS: The antibody was incubated at a concentration of 0.15 μg/100 μl with 2×10⁵ Jurkat, Molt4, CEM, and Hut78 cells respectively at 4° C. in dark for 30 minutes, washed twice with PBS, resuspended by 100 μl, and loaded for FACS test.

B1: monoclonal antibody HIT7 (antibody, V domains shown)
VH: QVQLQESGPGLVKPSQTVSLTCTVTGISITTGNYRWSWIRQFPGNKLEWIGYIYYSGIITYNPSRTSRTTITRDISKNQFFLEMNSLTAEDTATYYCARERGIYYDSLWYFDVWGAGTTVTVSS
VL: DIVLTQSPASLAVSLGQRATISCRASKSVSASGYSYMHWYQQKPGQPPKLLIYLASNLESGVPARFSGSGSGTDFTLNIHPVEEEDAVTYYCQHSRELPYTFGGGTKLEIKR
notes: also called CD7-HIT7 monoclonal antibody; mouse anti-human CD7 monoclonal antibody
- binding result: binds
